From FireProtDB (doi:10.1021/bi0115028)
Where “and” joins values, the source holds several entries; their conditions need not be identical. Equal entries are not always repeated.

Conditions: Bos taurus, 25 °C, NaCl 2 M, whole UniProt chain shown
[1] = pH 2.3, GdnHCl, Absorbance, H3PO4, NaOH
[2] = pH 2.3, GdnHCl, CD, H3PO4, NaOH
[3] = pH 6.2, GdnHCl, Absorbance, KH2PO4-Na2HPO4
[4] = pH 6.2, GdnHCl, CD, KH2PO4-Na2HPO4
[5] = pH 6.2, Urea, Absorbance, KH2PO4-Na2HPO4
[6] = pH 6.2, Urea, CD, KH2PO4-Na2HPO4
[7] = pH 8.3, GdnHCl, Absorbance, KHPO4-Na2HPO4/NaOH
[8] = pH 8.3, GdnHCl, CD, KHPO4-Na2HPO4/NaOH
[9] = pH 8.3, Urea, Absorbance, KHPO4-Na2HPO4/NaOH
[10] = pH 8.3, Urea, CD, KHPO4-Na2HPO4/NaOH

B1: Beta-lactoglobulin wild type, P02754 (protein)
chain: MKCLLLALALTCGAQALIVTQTMKGLDIQKVAGTWYSLAMAASDISLLDAQSAPLRVYVEELKPTPEGDLEILLQKWENGECAQKKIIAEKTKIPAVFKIDALNENKVLVLDTDYKKYLLFCMENSAEPEQSLACQCLVRTPEVDDEALEKFDKALKALPMHIRLSFNPTQLEEQCHI
denaturant m value [1]: 3.9 kcal/mol/M | denaturant midpoint (higher = more stable) [1]: 3.4 M | unfolding free energy [1]: 13.4 kcal/mol | denaturant m value [2]: 3.8 kcal/mol/M and 4.4 kcal/mol/M | denaturant midpoint (higher = more stable) [2]: 3.5 M | unfolding free energy [2]: 13 kcal/mol and 15.2 kcal/mol | denaturant m value [3]: 2.5 kcal/mol/M | denaturant midpoint (higher = more stable) [3]: 2.7 M | unfolding free energy [3]: 8.4 kcal/mol | denaturant m value [4]: 3.3 kcal/mol/M and 2.5 kcal/mol/M | denaturant midpoint (higher = more stable) [4]: 2.9 M and 2.7 M | unfolding free energy [4]: 9.5 kcal/mol and 6.9 kcal/mol | denaturant m value [5]: 0.9 kcal/mol/M | denaturant midpoint (higher = more stable) [5]: 4.1 M | unfolding free energy [5]: 3.7 kcal/mol | denaturant m value [6]: 0.7 kcal/mol/M and 0.6 kcal/mol/M | denaturant midpoint (higher = more stable) [6]: 3.5 M and 2.1 M | unfolding free energy [6]: 2.3 kcal/mol and 1.4 kcal/mol | denaturant m value [7]: 3.2 kcal/mol/M | denaturant midpoint (higher = more stable) [7]: 2.3 M | unfolding free energy [7]: 7.6 kcal/mol | denaturant m value [8]: 3 kcal/mol/M and 3.4 kcal/mol/M | denaturant midpoint (higher = more stable) [8]: 2 M | unfolding free energy [8]: 5.9 kcal/mol and 6.9 kcal/mol | denaturant m value [9]: 1.1 kcal/mol/M | denaturant midpoint (higher = more stable) [9]: 3.5 M | unfolding free energy [9]: 4 kcal/mol | denaturant m value [10]: 1.5 kcal/mol/M and 1.4 kcal/mol/M | denaturant midpoint (higher = more stable) [10]: 4.4 M and 3.6 M | unfolding free energy [10]: 6.4 kcal/mol and 5 kcal/mol
